PMC3841061

Molecular target: P2Y1R-i3-YFP-long2/tail-HT (human) (UniProt P47900)
Experiment: FRET or BRET

UniProt P47900, sequence (P47900 whole entry): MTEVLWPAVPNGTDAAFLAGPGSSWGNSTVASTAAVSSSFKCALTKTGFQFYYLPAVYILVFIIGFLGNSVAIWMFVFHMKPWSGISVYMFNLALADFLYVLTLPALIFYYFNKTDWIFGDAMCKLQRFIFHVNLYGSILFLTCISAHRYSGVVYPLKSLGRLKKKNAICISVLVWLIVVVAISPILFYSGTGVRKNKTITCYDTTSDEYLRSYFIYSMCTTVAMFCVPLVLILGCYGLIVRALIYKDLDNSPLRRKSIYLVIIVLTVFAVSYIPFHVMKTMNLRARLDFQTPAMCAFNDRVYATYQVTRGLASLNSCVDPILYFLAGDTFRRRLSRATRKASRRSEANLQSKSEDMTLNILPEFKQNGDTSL

ΔnF/ICFP by ADPβS 10 μmol/L (agonist-induced increase in FRET): 0.014
Substance: Gαq-CFP (from UniProt P21279 1-359) (natural protein)
